Test results: patent US9744220B2, “Compositions and methods for treating inflammatory diseases” (priority 2013, dated 2017)

Tests used:
[1] = tested on: cardiac Sca-1+ cells; assay: Intravenous sPDNF into naïve mice, Sca-1 staining of heart sections; format: in vivo
[2] = tested on: cardiac fibroblasts; assay: sPDNF stimulation of primary cardiac fibroblasts, chemokine transcripts by qPCR; format: cell-based, mouse; details: 3 hr, dose-dependent
Experimental: FIG. 7A is a graph depicting MCP-1 and FKN expression in cardiomyocytes of mice infected with T cruzi. FIG. 7B is a graph depicting MCP-1 and FKN expression in cardiac fibroblasts of mice infected with T cruzi. T cruzi infection: Primary cultures of mouse cardiomyocytes (FIG. 7A) and cardiac fibroblasts (FIG. 7B) were plated in 6-well plates, infected with T cruzi Tulahuen strain (MOI=10) for 3, 24, and 72 hr, and MCP-1 and FKN transcripts were quantified by qPCR. Chemokine gene expression was normalized to HPRT and fold change calculated relative to uninfected cells. Points represent mean±SD fold change expression of triplicate samples. The experiment was repeated, and similar results were obtained. FIG. 7C is a graph depicting MCP-1 and FKN expression in cardiomyocytes of mice injected with sPDNF. FIG. 7D is a graph depicting MCP-1 and FKN expression in cardiac fibroblasts of mice injected with sPDNF. sPDNF stimulation: Primary cardiomyocytes (FIG. 7C) and cardiac fibroblasts (FIG. 7D) were plated in 6-well plates, serum starved overnight, then stimulated with the indicated concentration of sPDNF (3 hr), and MCP-1 and FKN transcripts were quantified by qPCR. Chemokine gene expression was normalized to HPRT and fold change calculated relative to vehicle-treated cells; *P<0.05, **P<0.01, and ***P<0.005. […]

[3] = tested on: H9c2 cardiomyocytes; assay: sPDNF stimulation of H9c2 cardiomyocytes, transcripts by qPCR; format: cell-based, rat
Experimental: FIG. 8A is a graph showing dose-response of MCP-1 secretion to sPDNF stimulation. H9c2 cardiomyocytes were plated in 6-well plates, grown in low serum (0.1% FCS) overnight, and stimulated with the indicated doses of sPDNF for 3 hr. Secretion of MCP-1, MIP-2α and IL-6 was determined by ELISA. FIG. 8B is a graph showing dose-response of MCP-transcript expression. H9c2 cardiomyocytes were plated in 6-well plates, grown in low serum (0.1%) overnight, and stimulated with the indicated doses of sPDNF for 3 hr, and MCP-transcript quantified by qPCR. Chemokine gene expression was normalized to HPRT and fold change calculated relative to vehicle-treated cells. Points represent mean±SD fold change expression of triplicate samples; *P<0.05, **P<0.01, and ***P<0.005. FIG. 8C is a graph showing time course of MCP-1 and FKN transcripts expression. H9c2 cardiomyocytes were plated in 6-well plates (triplicate), grown in low serum (0.1%) overnight, stimulated with sPDNF (1 μg/ml) for the indicated times, and MCP-1 and FKN (data not shown) transcripts quantified by qPCR. Three experiments gave similar results.
Primary cardiomyocytes and cardiac fibroblasts, and H9c2 cardiomyocytes were seeded at 6-8×10^4 cells per well in DMEM/10% FCS and allowed to adhere overnight, serum starved (DMEM/0.1% FCS overnight), and treated with sPDNF (0.5 ng/ml-8 μg/ml, 0-16 h). Cell supernatants were collected and stored at −80° C. and cell monolayers rinsed with PBS and collected in Trizol for qPCR analysis.
RNA was isolated from Trizol lysates of cell monolayers or liquid nitrogen snap frozen tissue samples dissociated by a Tissue-Tearor mechanical homogenizer (Biospec Products, Inc.). cDNA was synthesized using the Quantitect Reverse Transcription kit (Qiagen) according to manufacturer's instructions. Chemokine and chemokine receptor transcripts were amplified using specific primers and normalized to HPRT using SYBR Green (Qiagen), and, if needed, expressed relative to control-unstimulated cells. The following primers were used: […]

[4] = target: TrkB (Homo sapiens, UniProt Q16620); details: previous finding; cited from earlier work
Chain of TrkB (Q16620 32-822, species assumed): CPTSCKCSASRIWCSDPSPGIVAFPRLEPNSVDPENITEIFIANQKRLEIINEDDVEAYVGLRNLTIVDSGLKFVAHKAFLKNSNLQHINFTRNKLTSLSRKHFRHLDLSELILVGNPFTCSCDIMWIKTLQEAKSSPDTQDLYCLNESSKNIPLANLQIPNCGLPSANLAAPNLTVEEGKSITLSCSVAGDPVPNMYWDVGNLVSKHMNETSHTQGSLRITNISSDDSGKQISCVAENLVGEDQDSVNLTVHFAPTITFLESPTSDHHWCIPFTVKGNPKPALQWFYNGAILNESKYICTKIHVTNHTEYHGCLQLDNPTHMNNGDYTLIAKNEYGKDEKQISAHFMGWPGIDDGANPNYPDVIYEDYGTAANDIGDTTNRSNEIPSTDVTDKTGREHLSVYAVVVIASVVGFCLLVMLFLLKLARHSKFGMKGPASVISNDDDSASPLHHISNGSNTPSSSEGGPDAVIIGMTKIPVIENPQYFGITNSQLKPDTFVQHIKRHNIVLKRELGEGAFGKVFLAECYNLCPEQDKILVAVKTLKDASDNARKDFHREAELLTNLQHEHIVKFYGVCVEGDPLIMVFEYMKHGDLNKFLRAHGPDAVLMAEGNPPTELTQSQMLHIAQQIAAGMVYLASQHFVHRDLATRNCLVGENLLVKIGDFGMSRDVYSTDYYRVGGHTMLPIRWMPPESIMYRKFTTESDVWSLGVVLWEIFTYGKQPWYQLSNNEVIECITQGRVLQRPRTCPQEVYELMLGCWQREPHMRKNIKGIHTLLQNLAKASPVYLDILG

[5] = H9c2, sPDNF 1 μg/ml, time course

B1: sPDNF: N-terminal short-form of T cruzi PDNF that contains Trk-binding sites, recombinant; amino acids 1-588 of SEQ ID NO: 2; JR-100 is the commercial name (protein, listed as Trypanosoma cruzi)
chain: MGKTVVVASRMFWLMFFVPLLLAICPSEPAYALAPGSSRVELFKRKNSTVPFEDKAGKVTERVVHSFRLPALVNVDGVMVAIADARYDTSNDNSLIDTVAKYSVDDGETWETQIAIKNSRVSSVSRVVDPTVIVKGNKLYVLVGSYYSSRSYWSSHGDARDWDILLAVGEVTKSTAGGKITASIKWGSPVSLKKFFPAEMEGMHTNQFLGGAGVAIVASNGNLVYPVQVTNKKKQVFSKIFYSEDDGKTWKFGKGRSDFGCSEPVALEWEGKLIINTRVDWKRRLVYESSDMEKPWVEAVGTVSRVWGPSPKSNQPGSQSSFTAVTIEGMRVMLFTHPLNFKGRWLRDRLNLWLTDNQRIYNVGQVSIGDENSAYSSVLYKDDKLYCLHEINTDEVYSLVFARLVGELRIIKSVLRSWKNWDSHLSSICTPADPAASSSESGCGPAVTTVGLVGFLSGNASQNVWEDAYRCVNASTANAERVRNGLKFAGVGGGALWPVSQQGQNQRYRFANHAFTLVASVTIHEAPRAASPLLGASLDSSGGKKLLGLSYDEKHQWQPIYGSTPVTPTGSWETGKRYHLVLTMANKI
[1]
  cardiac Sca-1+ cells: expanded
[2]
  FKN transcripts: increase
  MCP-1 transcripts: increase
[3]; H9c2, 3 hr, dose-dependent
  FKN mRNA: increase
  MCP-1 mRNA: increase
[3]; [5]
  time at which MCP-1 transcript dropped to levels similar to unstimulated cells: 8 h
  time of maximal MCP-1 transcript increase after sPDNF stimulation: 3 h
[4]
  recognition of TrkB: not recognized
